Experimental data published in the DeepSol protein solubility set.

experiment: soluble on expression in E. coli; label from the status in PepcDB or PDB records

Soluble on expression in E. coli, not soluble:
MAHHHHHHMGKYAVVVIGPAGSGKSTLCTVVAEHYATKGRSTHICNFDPAAEDLPYDPSIDIRELISLEDAMEGKGLGPNGGLVFCMEYLLGQGEVWLCDQLGDHEEDFIIVDMPGQLEVLSHIPAVPGFVRLLERSGFHVVVLFLLDALAATADAGKFVSGCTFALSCMVCFECPFMNVLTKCDLLPPAIREEALDHFCTCDFDYLNTKPLPERWREMVRTLAAVIFDFNLVTFRPMDNTDVAYVGNLCYLIDEALQVVDDAEVNDRDLPDASEAGEAVEDTMDWKHY
MAHHHHHHMHTFYTIRYPPPNSQKGGEDSQPIRVTNKAMESLLFCIVHSIEFQSPLQPSRPQLGSSIGSSGKDSITDDEAYVRPVENSSMLLGNVTYVSRSKHKPSVLASLHTAVEAARAIQIPEKSSQVPFELRVRLLRRHRGWLWHDSRPLVEWVFRMAKTREEFSFSTTHGDASERPRPRTSPRATNAHANVVRATGGGGVHSRSREDGLVCSNDPEQIRQVLQFILKHSYDAIDLNTYADFRSGELIFDVSVQEV
MAHHHHHHMKAKGPVKIVLFGAPGVGKGTFAEILSKKEKLKHINMGSILRDEIKNKTTIGREIHKVVTSGNLVADELVVKIVKGEIAKVTAQDGHFKGFILDGFPRNLLQCKQLVEITSIDLFVNIHMPRHILLKKIMGRRICHECNRNFNIAHIRDDPYDMPPILPPPECEKCKGNPKLQRRSDDEEEIVAHRLDTYESTNSHLINFFKNSNCNLVDFEIQRGLRDFDSFYRVVGQHL
MAHHHHHHMKGLHIRPMNDSRLCERIKVLDDYCFPVKYTESYYNDYVRNSFHEFNQLAFYHDILVGSITCRLEKTATDGEHVLYIMTIGVLEAYRHLRIGSRLLQTVLSAVHNDTRNRIVAVTLHVQVGSPALKLYRQFNFEEVQLVENYYTDLDECNAILLRRVVPQPHFEHHKKFK
MAHHHHHHMKLNIAYPRNGTVKQFEISDEVLRRVQLQDYRLGNEVDGAIFGSEFKGYIFRLRGGSDKDGFPMVPGVLASSRVSLLVKRGAIGFNTFRGYQGERRRKNVRGCVLASDIALVNVTISKVGDQPIEGVTDTTAPRRLGP
MAHHHHHHMKNKSIRKERQSGETLEDNIEEINYCIKVIPKDKINSKGNGAIRLSNLDMNRSNNGNYYNQNNNVENINDFETECRNYIEDILKIDEYVKLPNSINNEQDKIKWKKAHSLRNRMKEYDLITRTRLYQSNSVNNKAKLNRERYIILNKIPRYREAFPSIMNNTSTDKIKEDIIRTYLKTHAAYFLSQNKKNSNLSLKNMGRNTYFSFRKKSDDRNNSLINYNKHMNDKSKSVEHNNCPNLKKKDRSYNLWKRITVDDIKNTHFTPTEKQYLKDYNIFLNDAFNNFKINQNNNKRQLNVKNQKNIPNYDMINNKIYGHIKNNANNNLYINNQKREDAYIINPSQNNIITSPNEEQYPYFNNYSYSDKNKNLSTYNTEGKRNIYTNDVKSNTNYQHSNNSNYSDESLNMFSNSSTSIYEKYNLKDKNFVLKRDRYALLGKIKNNKEIEVKLVLNKV
MAHHHHHHMKNVKVELDGKVYTILYEPKKVKFSDLDPLKIMFHSNHVKHSGNSVIRYLVKLTSRDISKMDYVVRHVDISYDRPLKYEDSYKIIGGITSYGSTSLRITLFGTNSSSKNGCSSNLGVKNILRNGACAHVDEAAKPEEGHEKASSSGEFKSEHSEVATRRDPNKKATKSDHHVEKLLAKYKEDNADAVIKLCRNKMNEIASQKHCINYFTAHYTLVRVNKEGAKEPIQEKYKNEFPPIEVEKLKELVSVFC
MAHHHHHHMLGEGLDIGFYAEDAYAAYVTDLATSLHLVPHCRNARGATLEVVFTGPFHDLSAYEEAVKQGKLVPYAELPWPVAEERGVQGVSGATLSVTLHGWIEKLNAARKVQLMEPLFPAAELGATIAEICVMGDAGNSAPCAFASTSPPCVAESAGTSNEKGTHPSLKPSRFRILGSLDFLLHLSSRDWLMGESSVPADSPSADGRDEANPNFAVGADDATRAAHACRDALEQRDDVALARNAVNTVIKMAQMAEEHPGEVGSVFVDAKERVEYIQFSAQ
MAHHHHHHMLNITRLRNLPEDLFEVDRRQKNGSNQSGKGWPQHKELIFDFTSLVRAYNQNKFEHLTDTFNNNRILISELVLHQLDEKNKVVRSTDAANAQEDDFHPVRLRDLINFLVTNMTESWLEFQRKGTQEDKQFTQLRCLNENVETPLRLISYALYKKRQGKDVLLVTSDSGLKCEAGLNSIDSQSIENIG
MAHHHHHHMLRHCIPRLGIAKTVIKDNYSLSTLTNGLRVLTCDDGNGVTGMGLFMLNGAKFESPDNAGAAAVFEALPLRDNQIYTSREISQALSGLGNAFKVTNNKEALSVILMLPRYHQRDGLELLNAMCLHPTRNEEEFRIAKEKTHERTLLYDRDATSVCFELVHEAGWNGKGLGHSLNPKKEELDKLTLEKFTAFHSACTRPERTVLAATGVADHKSFAEEVEKLLRFNNADVAVQAMPQLQPGYYPYTGGSRLVHRTEAPESVNKFQEKSLSHVALFFQGVPINHPDYYNISVIQTLLGGGTSFSSGGPGKGMQTKLFREVLNREGFLHGLECITAWYSDGGLFGLYGTAPHQAVVSLLNVMIYQAASICQRVSPTHLEMAKNQLRSQLILLGEGREQLLSDMGFNLVVHNHIITATETMEGTRNITLDDLKRVCADMIKKPLTFTVYGDTTKMPSHESLEETVRKTYEKLN
MAHHHHHHMLRLCRVSLRVQSHQKKRAQHPNAGTRFGRVYNRGFIRYGFGGFGMSVYTPKKDRRFRVQPLPSLHANSLADDTPLVTTTRTLSPNFRAFALQDGGVFFTHPSHEQVMRVGQNILAEETKATGMTSMDTYVNSRIQSIIAENTVENVALSHWRRRHMWNLVRTHGKLQRHWGVSDATKGARSNIYGRPS
MAHHHHHHMLRQSLLSLAKVYGAVPPLGAAQGHRLLHGKREREGSLFAVANDVKRDERLLRQQLNALLEEERMPMQARLQRSEAVSSHEAVPQTPLVDLPGVERRRDLPADPITRLFFQHKGDHALYYGTYDKPSVQDDDRVQIEKRVPRRREENLYTPIYDFCHRIREATEQRKRFVVVPSTIETRGCARVMHDHGLVAGFRDFHNDRAFAVELKYFQGDSTINVIEPCSYDGRTEFEWSPKMMRRLLNTHGIHNRLVVYICRTADNRIIDHIHAVKENIGGRGLMMVH
MAHHHHHHMLSNVPEEPEKLVREVSDLAEAFITNLKRGKLAAARSGGESLSTAAAVEMADVMSTIVRLFQNAEKDLHSTTIQLLKAGYPAAEVASMQVSRLLILVARTGDAMLRAQFATLFLMNVTRRVLSIVRESAANSKATDAELEDEAKTILNDLASDDEAAVVETPADTSSSSSNRCGMDDSTDPASPSLSAKGMKPALKRDTLVSQPLSRRGLSVRFAGTSTSSEEASGGHMRQLQQHSTSVASDFGGPLLQHTGSIVATEIPGRQLLKRAPSRCEQVLEGGGGEIEFPVRMEIFYQDALDAIDEFKRELEGMTEELCRRSTRQLHSSDTIITLGCSHTIRRYLLEAAQAGHHFKVFILEGAPLPAQATQEFAEALCSRGITAQLLPDSSAYVVMSMCTKVLVGAENVLANGGMLASIGTHVLCAAARHFAVPVLVATTTLKMSPYYPSDQLCTRLVRIARSGAQEMPWSTYGSPEDVWPSPFGVSVSDSGRRLTIHAPVTEYVPPELITLFLTNDSELLPSQIHRIVRANYSDAD

Soluble on expression in E. coli, soluble:
MAHHHHHHMGTLEAQTQGPGSMNLDDIGSGSNAPEEVNVVIEVSQDSHPVKYEFDEKNGALWVDRFLPTAMYYPCNYGFIPNTIAGDGDPVDVLVLARFPVMPGAVICVRPVGVLMMNDEKGEDAKVLAVPATKVDQYYGNIVNYSDLPSSFLDSISHFFSFYKKLEKDKFVSVGCWQDAASAKELIRSAIIAAKKGEN
MAHHHHHHMILDLFDLCATPYAKRRSHLHSFMSELEDRLFRAEMALTQRRRSAVSPKEKRALGAVRPINVVVQEVLRETPILCFDEFQTFDVAHAALLAAFFSEAFREGLFFITTSNRPPEDLCRVSASFNAFLPVLRQHCHVVHCADIRDYRVKEAVERHHQLIFLHPNTKTNVERCCGVSSMLSGLVAESLHGSRRTHCGTTAAAS
MAHHHHHHMINSVYHSKKACVEALRAVERLQPSWWTPPCSEFLHRVEQTPTVTAQPNQKTLIVLEGIDGVGKSLVAQSLIEKLGDSAVLIRTPHPDLSGIRETFRAQTEETARAFYSAANYLAAWDAFHATKERKFVVFDRWWCSTCAMALANSCRLAALPAAGDAVYQWPQDLPPFQLGALLYVEEHIRQARIRQRAPEDAEERRLRAQQEMREVAMEAYRRFGLLNEVHVATYGVAVNRILALMTEKGLPHSATPFSAEELAALRQI
MAHHHHHHMKIVPPNFGYVEERIFRCGAPEPCHYAFLASLKLRTCVLLTESHDEAFVRWLRENNVHTVCPLYDGSRMNGLGDKMGCVGYHTGSMTLSEPVVVDILHVLVDPINYPLLLTCSVGRYRTGIVCGCLRKLQGWSLVSILEEYRRYAQDKGRAENEEFIELFDKDLVNLELKDGRRPTILYPYDV
MAHHHHHHMLCVSVAKDGFAIVLTGLDTKRRAPPHQQRLSRNVCFHQTKAKEFVARFHQPCFLAWSHRTIGHPDALQDGARRRQEYKPSHSHPFFRCNEGAHQHMCG
MAHHHHHHMLILKNVEHTILLKIVKRSFSRNVNNNKFVIKPSSLRIRSDKNNFNDIINKYFPNRILKKRKQQDDYSKMNDKNEEKDKKYYLSSKIERRLKMEKVNDQSNISFYNVIPRDKNKNNYLLDSYNNINNDDSTNISDNTNISDNTNISDNTNISDNTNISDNINISDNINISDDINICDKLNICDNTNINLFGYDMTSHQVRVEEKENNLTRNNKKNVLEITKEEHDIQKYKNKLHKKIWILLKRKSNEKEFEHYYNMLEKYPLKDEVSYSILLHGKLLISKRKKDNAENYYDIIKECFKILNEMKVKKIHPTLVRFNEKLVLSYYELIKLNVHPSYKQWMKILRTVWFVSALVKARRQKFILRKMKKIKNKNSVSLDNFNGTFNIHNLESLYVENRDPLIANNVQQGI
MAHHHHHHMLPNHSCKGFVDAQGRVFVDGREYPMASGIVATEDVIQANIKAMANTIAKDYKSLSHRDVRLSPGTAATAEAAEAPISYDNPLIIISVLKGSYIFTSDFIRYLGDCGLPHVVDFVRLASYNSDTTSTGQISMLAGLRFENLRGKHVLIVEDVCDSGRTLRFLRDYIMEKFQPKSVKTLVMVNKEQAARKLDFDPEYFCLAGPNKYIVGYGFEVNDRYRDLRHIFILRDGEATRYPAKL
MAHHHHHHMLRGKSGLTASSSLEGGSEFSERIGNTLSSFLSESASLEVIGNELADNIANEIVGSLQNDSASFLQSEFDVKAQLKATAKKVLTEALKAALEPTEKIVASTIKPPRIKEDIYFLLSPVVRSLFNKVEDVLHKPVSDDIWNYESRGSSSEEEDEVDSDEDFLD
MAHHHHHHMLTLNRRDKEICQELIRKNFTLSQIQSYNEPEYSGWVSRRRRVSNIFVWELNWLATSGNYLLCFSQKKDSCHPIKIMYLPEAIIRRCSMKEECCVGHPFVLEIVPCLHFVREEKGLFPVKPHEVHFSFENVEDLCGTIAFLAKISARHVRTASITFGPPTRVNHRIHLRAARGKNDFGLELLPLPMREWLLRQGITCAEMAGNETTALNCATTLYEVQMQRGMLEDLPPISEEGVTEKRYEDKAGVPPFPLPSENEGGALEPLLSAGDPESLFSDWERLDGGSQGEVFKAVRVVDGRKVAIKRITVRGDHKVPQSLVKEMSLLKALHHPNIVTLYDCYRKGKHLFLAMELMDGGKLTDLLIPSEGEPVEFTEAQLATLIREVLRALRCLHNARCVHRDVKSDNVLLSSNGEVKLGDFGFATLLTSPGGMRRTLVGTPYWMAPEVAGGKAYNDKADVWSAGILFLEMCDGQPPLMGMNPMRALLTVSTGPPPVMRTANRWSSLCREFASFLLVKDPARRPSVDDALRHPFIVKKAEPTCRFVATILQRRK
